Results on 1 molecule are retold here after US20250281600A1 (published 2025).

This assay addresses SARS-COV-2 Spike Protein Native RBD (UniProt P0DTC2 333-526). The assay can be described thus: BLI. A general note: In BLI a coated tip is dipped into the sample, and binding shifts an interference pattern.

B1: REGN10933 IgG (antibody, V domains shown)
VH: QVQLVESGGGLVKPGGSLRLSCAASGFTFSDYYMSWIRQAPGKGLEWVSYITYSGSTIYYADSVKGRFTISRDNAKSSLYLQMNSLRAEDTAVYYCARDRGTTMVPFDYWGQGTLVTVSS
VL: DIQMTQSPSSLSASVGDRVTITCQASQDITNYLNWYQQKPGKAPKLLIYAASNLETGVPSRFSGSGSGTDFTFTISGLQPEDIATYYCQQYDNLPLTFGGGTKVEIKR
A word on the Kd: it is the concentration at which binding is half-saturated. Molecule B1 came in with a Kd of 1.8 nM.
